Data: article PMC6220978, “Induced conformational changes activate the peptidoglycan synthase PBP1B” (Molecular Microbiology, 2018)

How the values were obtained:
Assay in all cases: SPR; PBP1B versions immobilised to the chip surface; LpoB injected from 19.5 nM to 10 μM; apparent KD by non-linear regression, at least three independent experiments
Details in all cases: both partners purified
PBP1B D443A = molecular target: T1, PBP1B D443A (E. coli, UniProt P02919 46-844, D443A)
T1 construct: PBP1B, E. coli, residues 46-844, made by mutagenesis of pDML924; source: E. coli BL21(DE3), purified (membrane extract, HisTrap, thrombin, HiTrap SP ion exchange)
T1 sequence (looked up): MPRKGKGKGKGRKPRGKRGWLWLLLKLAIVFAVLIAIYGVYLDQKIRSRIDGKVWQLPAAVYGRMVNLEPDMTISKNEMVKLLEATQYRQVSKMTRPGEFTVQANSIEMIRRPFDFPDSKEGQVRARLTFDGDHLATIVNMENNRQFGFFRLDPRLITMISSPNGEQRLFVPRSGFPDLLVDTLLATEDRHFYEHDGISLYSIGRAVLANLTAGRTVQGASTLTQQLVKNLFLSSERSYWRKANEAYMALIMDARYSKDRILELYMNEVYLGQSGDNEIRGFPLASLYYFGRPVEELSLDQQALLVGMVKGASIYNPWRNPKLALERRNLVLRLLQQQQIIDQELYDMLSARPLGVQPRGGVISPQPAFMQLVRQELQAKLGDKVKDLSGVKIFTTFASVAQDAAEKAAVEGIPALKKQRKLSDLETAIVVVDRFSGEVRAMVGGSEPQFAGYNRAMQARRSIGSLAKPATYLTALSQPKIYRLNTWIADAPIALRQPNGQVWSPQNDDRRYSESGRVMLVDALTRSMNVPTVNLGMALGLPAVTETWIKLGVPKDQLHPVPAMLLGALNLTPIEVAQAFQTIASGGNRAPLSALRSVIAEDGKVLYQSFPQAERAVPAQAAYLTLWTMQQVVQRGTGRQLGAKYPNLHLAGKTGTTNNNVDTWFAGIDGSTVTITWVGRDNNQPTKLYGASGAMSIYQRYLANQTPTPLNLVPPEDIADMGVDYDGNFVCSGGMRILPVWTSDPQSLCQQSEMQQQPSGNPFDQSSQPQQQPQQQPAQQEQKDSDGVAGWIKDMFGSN

PBP1B^Δ158–160 = molecular target: T2, PBP1B^Δ158–160 (E. coli, UniProt P02919 46-844, Δ158–160)
T2 construct: PBP1B, E. coli, residues 46-844 with residues 158-160 of Loop 1 removed, made by mutagenesis of pDML924; also called Loop 1 truncation; source: E. coli BL21(DE3), purified (membrane extract, HisTrap, thrombin, HiTrap SP ion exchange)
T2 sequence (looked up): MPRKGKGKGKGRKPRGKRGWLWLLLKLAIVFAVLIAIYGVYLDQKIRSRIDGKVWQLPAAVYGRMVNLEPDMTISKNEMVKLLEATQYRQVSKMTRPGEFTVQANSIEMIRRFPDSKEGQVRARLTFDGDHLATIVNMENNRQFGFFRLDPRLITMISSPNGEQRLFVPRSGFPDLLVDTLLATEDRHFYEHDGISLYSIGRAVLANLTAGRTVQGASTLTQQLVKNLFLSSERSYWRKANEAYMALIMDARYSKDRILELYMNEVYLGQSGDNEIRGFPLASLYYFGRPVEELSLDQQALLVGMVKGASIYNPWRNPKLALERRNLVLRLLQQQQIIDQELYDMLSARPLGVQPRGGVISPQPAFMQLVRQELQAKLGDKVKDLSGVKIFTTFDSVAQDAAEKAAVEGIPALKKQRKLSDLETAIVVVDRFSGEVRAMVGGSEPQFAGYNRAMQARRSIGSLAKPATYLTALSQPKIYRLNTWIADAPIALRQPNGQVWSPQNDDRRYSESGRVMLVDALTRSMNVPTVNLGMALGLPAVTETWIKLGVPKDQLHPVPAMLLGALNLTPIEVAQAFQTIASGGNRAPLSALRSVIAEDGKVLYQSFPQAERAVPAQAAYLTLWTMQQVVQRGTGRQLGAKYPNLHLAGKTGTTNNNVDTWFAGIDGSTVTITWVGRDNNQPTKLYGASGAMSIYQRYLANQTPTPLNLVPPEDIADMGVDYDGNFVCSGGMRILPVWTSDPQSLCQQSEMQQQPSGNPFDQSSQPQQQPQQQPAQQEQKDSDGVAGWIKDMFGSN

PBP1B P162C/I644C = molecular target: T3, PBP1B P162C/I644C (E. coli, UniProt P02919 46-844, P162C | I644C)
T3 construct: PBP1B, E. coli, residues 46-844, made by mutagenesis of pDML924; Disulphide bridge between C162 and C644 (no free thiol groups detected); reduced in the SPR assay with 2 mM TCEP; source: E. coli BL21(DE3), purified (membrane extract, HisTrap, thrombin, HiTrap SP ion exchange)
T3 sequence (looked up): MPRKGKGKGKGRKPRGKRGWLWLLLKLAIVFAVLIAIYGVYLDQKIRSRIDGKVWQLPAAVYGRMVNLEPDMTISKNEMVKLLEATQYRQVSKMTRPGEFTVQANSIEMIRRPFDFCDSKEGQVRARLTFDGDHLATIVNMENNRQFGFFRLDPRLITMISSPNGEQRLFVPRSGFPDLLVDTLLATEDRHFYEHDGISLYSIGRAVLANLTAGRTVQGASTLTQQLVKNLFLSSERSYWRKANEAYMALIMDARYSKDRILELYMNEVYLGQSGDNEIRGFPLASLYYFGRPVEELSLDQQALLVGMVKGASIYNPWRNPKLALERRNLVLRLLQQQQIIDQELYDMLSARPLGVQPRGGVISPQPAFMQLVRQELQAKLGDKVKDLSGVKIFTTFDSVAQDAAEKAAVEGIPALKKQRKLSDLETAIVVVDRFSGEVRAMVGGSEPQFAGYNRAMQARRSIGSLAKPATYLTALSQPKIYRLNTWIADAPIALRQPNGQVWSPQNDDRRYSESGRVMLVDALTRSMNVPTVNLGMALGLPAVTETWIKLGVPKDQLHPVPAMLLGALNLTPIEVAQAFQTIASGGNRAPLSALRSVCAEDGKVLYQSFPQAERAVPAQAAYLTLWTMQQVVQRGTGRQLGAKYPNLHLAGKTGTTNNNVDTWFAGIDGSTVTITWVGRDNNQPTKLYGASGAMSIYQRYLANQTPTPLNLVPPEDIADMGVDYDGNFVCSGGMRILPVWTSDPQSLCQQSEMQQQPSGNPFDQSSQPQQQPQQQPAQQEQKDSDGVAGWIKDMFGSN

B1: LpoB (natural protein, E. coli)
chain: VGQREPAPVEEVKPAPEQPAEPQQPVPTVPSVPTIPQQPGPIEHEDQTAPPAPHIRHYDWNGAMQPMVSKMLGADGVTAGSVLLVDSVNNRTNGSLNAAEATETLRNALANNGKFTLVSAQQLSMAKQQLGLSPQDSLGTRSKAIGIARNVGAHYVLYSSASGNVNAPTLQMQLMLVQTGEIIWSGKGAVSQQ
notes: LpoB, E. coli; also called lipoprotein LpoB; source: E. coli BL21(DE3), purified (HisTrap, Superdex 200), as in Egan et al. 2014
Kd (PBP1B D443A): 289 nM
Kd (PBP1B^Δ158–160): 1900 nM
Kd (PBP1B P162C/I644C): 213 nM
